These results are taken from the DeepSol protein solubility set.

The nature of this series: soluble on expression in E. coli; label from the status in PepcDB or PDB records.
Turning to “MSLKLNTSNSPFTEKQVTEINNLLQTLTESQQQWLSGFLLANSNDTTSDSNQQQLETEVWQQSQISEEQATSTTYMLQNKEPHIEANQRHVTVLYGSESGNAMRLAEIFSERLSDIGHQVVLMSMDEYDTTNIAQLEDLFIITSTHGEGEPPDNAWDFFEFLEDDNAPNLNHVRYSVLALGDQTYEFFCQAGKDVDALLENLGAERICKRVDCDIDYEEDAEKWMADIINMIDTTSEGIQSESVISESIKSAKEKKYSKLNPYQAEVLANINLNGTDSNKETRHIEFLLDDFSESYEPGDCIVALPQNDPELVEKLISMLGWDPQSPVPINDRGDTVPIVEALTSHFEFTKLTLPLLKNADIYFDNEELSERIQDESWAREYVINRDFIDLITDFPTIELQPENMYQILRKLPPREYSISSSFMATPDEVHITVGTVRYQAHGRERKGVCSVHFAERIKPGDIVPIYLKKNPNFKFPMKQDIPVIMIGPGTGIAPFRAYLQEREELGMTGKTWLFFGDQHRSSDFLYEEEIEEWLENGNLTRVDLAFSRDQEHKEYVQHRIMEESERFNEWIEQGAAIYICGDEKCMAKDVHQAIKDVLVKERHISQEEAELLLRQMKQQQRYQRDVYEGHHHHHH”, the “soluble on expression in E. coli” value is “soluble”. Regarding “MSLKLQASNVTNKNDPKSINSRVFIGNLNTALVKKSDVETIFSKYGRVAGCSVHKGYAFVQYSNERHARAAVLGENGRVLAGQTLDINMAGEPKPDR”, the “soluble on expression in E. coli” value was “soluble”.

Take “MSLKMTFCRAVCLAAAFLLMGCDEAPETTTASPAAQVLEGKTMGTLWRVSVVGIDAKRAAELQTKIQTQLDADDWLLSTYKNDSALMRFNHSRSLAPWPVSEAMADIVTSALRIGAKTDGAMDITVGPLVNLWGFGPDRQPLHIPTPAQIDAAKAKTGLQHLQVIDRAGHQFLQKDLPDLYVDLSTVGEGYAADHLARLMEQEGIARYLVSVGGALSSRGMNAQGQPWRVAIQKPTDRENAVQAIVDINGHGISTSGSYRNYYELDGKRVSHVIDPQTGRPIEHNLVSVTVIAPTALEADGWDTGLMVLGTQKAQEVVRREGLAVFMIMKEGEGFKTWMSPQFKTFLVSDKNEGGSHHHHHH”: the “soluble on expression in E. coli” value is reported as “soluble”. Turning to “MSLKNELEFAKKLIDFIYDSPSPFHSVDNIKNTLIENGFAEIKEENKWELNKNGKYFVKRNDSALIAFTVGSGFVAKKGFKIIGGHTDSPTFRIKPNPEMVSENSYIKLNTEVYGGPILSTWFDRPLSIAGRVTVRGKSALFPETKLLNIKRPILVIPNLAIHMNRDVNSGFKINPQVDTLPIIGIINDKFEKENYLMKIIASELGEDIENIIDFDLFLYEYDKGCIMGINNEFISSSRLDDMEMVHAGLNALVNAKCSEATNVLACFDNEEIGSATKQGADSQFLSDILERIVLSFGGDREDFFRALHNSFMISSDSAHAVHPNKGEKADPITRPHINEGPVIKISAAQKYTSDSNSIAVYEEVCRLSGVPYQKFVNRSDERGGSTIGPITATHTAIRTVDIGTPLLAMHSIRELCGTLDHMYVEKSFEEFYNEGHHHHHH”, the “soluble on expression in E. coli” value was “soluble”. “MSLKNGKIANIGLINYVDLGKIIIKAKEEGKTAVDFKAIEDIMPWDEFVSSINETSEITRPKEYNSLDLIAEKYSTLRKYTPRLLKILEFKASKKGEPVLKAMETIKELNANTKRKVPKGAPLDFVTNQWEKYVYDQEGNIDKKYYELAVFTELKNAVRSGDISIVGSKQHKPFEEYLITDSEWEKYKAENTDFKVSLDAEEYLKARLDLLNNKLKYVSDNIKKLKGVSIEDNKFVLSRLEKAVPDEAKELATKLYSLIPRVNLSDIIIDISKFTAFDNNLIHASTNKEPKDNERSCITASLMALGTNIGLKKMEQAVKGISYKQMSNVVNWRMSDDNMEKAMAAITNYHHRQPYAVHWGDGSTSSSDGVRVKSAVEALNASYNPHYGLEKGVTMYSAVSDQYSRFGVGIINTNSRDAIHIIDILLNHRTELEIEEHYTDTAGYTDQVFGLTHLLGFRFAPRLRDISDCKLYCIEGKEDFRNIQSVIKGKINTKIIKENYDDILKPVSSIKEGKVSGSLIMGKLGSYSRQNSLAKALTELGKIEKTIFILDYLSDEDFRRKIQIGLNKGEAMNALARAIFFGKYGMFHEKDIQGQLQRATALSIIINSITLWNTMYLPKAVEKLKEKEGVDESLLRHVSPLGWEHINFIGQYNLDDSSDYNLIDNMRPLREILQEGHHHHHH”: the “soluble on expression in E. coli” value is recorded as “not soluble”.
